This note sets out measurements from article PMC4051120, “Drastic changes in conformational dynamics of the antiterminator M2-1 regulate transcription efficiency in Pneumovirinae”.

Series [1] deals with T1, HMPV M2-1 (Human metapneumovirus strain NL1-00 (A1), UniProt Q8QN58 1-187). As to the kind of experiment: SAXS titration; Zn2+ (zinc finger intact); 150 mM NaCl, 500 mM NDSB-201; closed conformation induced, Rg up to ~8 nm, aggregation; SAXS: 20 mM Tris pH 7.5, 150 mM NaCl, 500 mM NDSB-201, +/- 5 mM EDTA, ~0.2 mg/ml protein; TSA: 50 mM HEPES pH 7.5, 150 mM NaCl, 20-99 C; crystals: 28% PEG MME 2000, 0.1 M bis-Tris pH 6.5, 20 C. The conditions noted are these: protein: recombinant; tags: N-terminal His6-3C, optionally removed by 3C protease; chain copies: 4.

In series [2] the target is T1, HMPV M2-1. As to the kind of experiment: SAXS titration; Zn2+ (zinc finger intact); 150 mM NaCl, 500 mM NDSB-201; Rg increase, aggregation; SAXS: 20 mM Tris pH 7.5, 150 mM NaCl, 500 mM NDSB-201, +/- 5 mM EDTA, ~0.2 mg/ml protein; TSA: 50 mM HEPES pH 7.5, 150 mM NaCl, 20-99 C; crystals: 28% PEG MME 2000, 0.1 M bis-Tris pH 6.5, 20 C. The conditions noted are these: protein: recombinant; tags: N-terminal His6-3C, optionally removed by 3C protease; chain copies: 4.

For AGUUAAUUAAAAA (ssRNA) [F gene end RNA (positive sense)], the binding result in series [1] was “binds”. As to ACGCGAAAAAAU (ssRNA) [leader RNA 1-12 (positive sense)], the binding result in series [2] is “binds”.
